# Data taken from patent US20240400717A1 (NATIONAL CHENG KUNG UNIVERSITY, published 2024).
# B1: anti-CHI3L1 clone 293R3-5 (antibody, human IgG1, V domains shown)
# VH: EVQLVQSGAGVKKPGATVKISCKVSGYTFTDYYMHWVQQAPGKGLEWMGLVDPEDGETIYAEKFQGRVTITADTSTDTAYMELSSLRSEDTAVYYCATASPREEMPYYFDYWGQGTLVTVSS
# VL: SYELTQPPSVSVSPGQTASITCSGDILADQYASWYQQKPGQSPVLVIYHDTKRPSGVPERFSGSTSGNTATLTISGTQAMDEAAYYCQAWDINTAWVFGGGTQLTVLG
# notes: also called #hu 293R3-5
# Experiments:
# recombinant human CHI3L1 = target: T1, recombinant human CHI3L1 (human, UniProt P36222 22-383); assay: phage ELISA (3rd round single clone screening): coated protein, rescued phage supernatant, anti-M13-HRP, OD450
# T1 construct: also called rCHI3L1; human rCHI3L1
# T1 sequence (P36222 22-383 limits assumed): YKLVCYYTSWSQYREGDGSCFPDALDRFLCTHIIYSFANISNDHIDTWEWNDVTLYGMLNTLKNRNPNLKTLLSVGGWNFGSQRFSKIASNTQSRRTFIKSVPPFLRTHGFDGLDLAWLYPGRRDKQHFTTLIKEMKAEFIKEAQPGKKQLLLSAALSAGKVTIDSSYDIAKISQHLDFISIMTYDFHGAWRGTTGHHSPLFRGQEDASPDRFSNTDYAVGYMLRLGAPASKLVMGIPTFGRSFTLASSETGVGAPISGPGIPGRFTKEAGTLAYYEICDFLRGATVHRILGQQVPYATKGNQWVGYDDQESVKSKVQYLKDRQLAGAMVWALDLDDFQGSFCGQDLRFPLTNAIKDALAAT
# mouse rCHI3L1 = target: T2, mouse rCHI3L1 (mouse, UniProt Q61362 30-389, limits assumed); assay: as above
# T2 construct: also called mouse CHI3L1; murine CHI3L1
# T2 sequence (Q61362 30-389 limits assumed): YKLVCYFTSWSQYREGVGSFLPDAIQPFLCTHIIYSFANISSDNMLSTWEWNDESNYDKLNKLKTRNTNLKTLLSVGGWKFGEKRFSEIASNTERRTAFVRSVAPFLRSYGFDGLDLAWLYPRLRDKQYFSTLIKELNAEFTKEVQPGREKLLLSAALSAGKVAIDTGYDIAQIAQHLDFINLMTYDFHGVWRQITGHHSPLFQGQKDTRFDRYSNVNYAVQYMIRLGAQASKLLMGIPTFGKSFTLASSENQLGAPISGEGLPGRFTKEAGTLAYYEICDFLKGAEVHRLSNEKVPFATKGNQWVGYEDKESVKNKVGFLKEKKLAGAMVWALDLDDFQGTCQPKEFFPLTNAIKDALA
binder,measurement,setting,value
B1,binding result,recombinant human CHI3L1,binds
same,binding result,mouse rCHI3L1,no binding
